Among the data in article PMC6086316, “Interactions between the Aggregatibacter actinomycetemcomitans secretin HofQ and host cytokines indicate a link between natural competence and interleukin-8 uptake” (Virulence, 2018) are Kd values, retold here.

In this test the target is T1, human mature interleukin-1β (IL-1β, amino acids 117-269) (human).
T1 construct: Human mature IL-1β, amino acids 117-269; Expressed from pET-28bTEV; source: E. coli BL21 CodonPlus (DE3) RIL, purified (HisTrap, TEV cleavage, size-exclusion chromatography); not shown: His6, N-terminal, cleaved
Briefly: time-resolved fluorometric immunoassay (TRFIA); 60 pmol IL-8 or IL-1β coated on wells; emHofQ wild type and mutants 5 nM-2 μM, 4°C overnight; Eu-N1 anti-6xHis antibody; apparent Kd. The following applies: both partners purified.

T1 sequence (chain, as listed by the source): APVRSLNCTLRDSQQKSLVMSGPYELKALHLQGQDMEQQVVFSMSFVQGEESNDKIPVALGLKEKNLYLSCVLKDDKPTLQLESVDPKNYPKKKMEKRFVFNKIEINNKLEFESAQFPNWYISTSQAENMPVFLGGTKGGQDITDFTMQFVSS

B1: emHofQ_L1 (H136A, F137A, K139A) (domain or fragment)
chain: QNPVFSIRLKQAPLVPTLQQLALAHNTNLIIDDELQGTVSLQLENVDLDQLFRSVAKIKQLDLWQENGIYYFTKGDTNTKFAGKMEEPFPLSLPMAEEPAQLNTATIKLAAAAASEVMKSLTGGSGSLLSPNGSITFDDRSNLLLIQDEPRSVRNIKKLIKELDKPIEQ
notes: they already carry the substitutions; Secretin HofQ of Aggregatibacter actinomycetemcomitans, extramembranous domain, residues 27-195; The printed gene begins with ATG (Met, in the NdeI site) and ends with CTC GAG (Leu-Glu, XhoI site) before the His tag of pET36b; also called emHofQ mutant L1; source: E. coli BL21 CodonPlus (DE3) RIL, induced overnight at 16°C, purified (HisTrap, size-exclusion …)
For B1, the Kd was found to be 450 ± 160 nM.

B2: emHofQ_L1L2 (H136A, F137A, K139A, D165A, R166A) (domain or fragment)
chain: QNPVFSIRLKQAPLVPTLQQLALAHNTNLIIDDELQGTVSLQLENVDLDQLFRSVAKIKQLDLWQENGIYYFTKGDTNTKFAGKMEEPFPLSLPMAEEPAQLNTATIKLAAAAASEVMKSLTGGSGSLLSPNGSITFDAASNLLLIQDEPRSVRNIKKLIKELDKPIEQ
notes: they already carry the substitutions; Secretin HofQ of Aggregatibacter actinomycetemcomitans, extramembranous domain, residues 27-195; The printed gene begins with ATG (Met, in the NdeI site) and ends with CTC GAG (Leu-Glu, XhoI site) before the His tag of pET36b; also called emHofQ mutant L1L2; source: E. coli BL21 CodonPlus (DE3) RIL, induced overnight at 16°C, purified (HisTrap, size-exclusion …)
In the case of B2, the Kd came out at 440 ± 70 nM.

B3: emHofQ_L2 (D165A, R166A) (domain or fragment)
chain: QNPVFSIRLKQAPLVPTLQQLALAHNTNLIIDDELQGTVSLQLENVDLDQLFRSVAKIKQLDLWQENGIYYFTKGDTNTKFAGKMEEPFPLSLPMAEEPAQLNTATIKLHFAKASEVMKSLTGGSGSLLSPNGSITFDAASNLLLIQDEPRSVRNIKKLIKELDKPIEQ
notes: they already carry the substitutions; Secretin HofQ of Aggregatibacter actinomycetemcomitans, extramembranous domain, residues 27-195; The printed gene begins with ATG (Met, in the NdeI site) and ends with CTC GAG (Leu-Glu, XhoI site) before the His tag of pET36b; also called emHofQ mutant L2; source: E. coli BL21 CodonPlus (DE3) RIL, induced overnight at 16°C, purified (HisTrap, size-exclusion …)
As for B3, the Kd was 330 ± 70 nM.
